In the MegaScale stability set (Tsuboyama et al. 2023):

B1: 2M8U (parent)
chain: TKAQVIEAFKVFDRDGNGYVTVDYLRKVLNELGDMMPADEIEEMIYEADPQNSGYVQYETFVGMLFL

Variants of: B1
Assay: folding stability dG (cDNA display proteolysis); higher = more stable
Settings: PBS, room temperature

Folding stability dG [kcal/mol], by site and new letter:
M44: Q 2.95 | Y 3.21 | D 2.25 | T 2.97 | H 3.52 | I 3.05 | C 3.6 | G 2.53 | S 2.96 | R 3.66 | L 3.65 | E 2.18 | V 3.07 | A 3.48 | F 3.09 | K 3.56 | P 1.8 | N 2.88 | W 3.21
D39: A 3.7 | T 3.66 | Y 3.86 | Q 3.59 | H 3.71 | R 3.75 | E 3.59 | S 3.52 | P 3.68 | L 3.89 | F 4.09 | W 3.65 | I 3.83 | V 4.01 | N 3.68 | C 3.74 | K 3.79 | M 3.92 | G 3.77
P37: R 3.45 | V 3.34 | K 3.7 | G 3.36 | N 3.6 | M 3.3 | C 3.49 | F 3.57 | Q 3.43 | D 3.26 | W 3.79 | E 3.34 | I 3.41 | H 3.46 | S 3.33 | A 3.1 | L 3.45 | T 3.32 | Y 3.44
E40: S 3.7 | M 3.66 | V 3.74 | D 3.69 | I 3.91 | Q 3.64 | G 4.01 | C 3.85 | N 4.09 | R 3.96 | L 3.89 | F 3.99 | H 4.01 | W 3.75 | T 3.78 | Y 4.06 | K 3.91 | P 3.22 | A 3.65
A38: H 3.57 | G 3.41 | K 3.69 | F 3.53 | C 3.52 | R 3.62 | Q 3.69 | Y 3.5 | M 3.76 | L 3.59 | V 3.61 | E 3.43 | T 3.6 | D 3.32 | I 3.69 | N 3.45 | W 4 | S 3.56 | P 3.47
E43: C 3.74 | H 4.05 | Y 3.69 | A 3.81 | R 4.37 | F 3.8 | S 3.74 | M 3.82 | N 3.64 | K 3.75 | D 3.6 | T 3.73 | Q 3.9 | G 3.58 | V 3.78 | I 3.87 | W 3.87 | P 3.54 | L 3.73
N52: W 3.1 | P 2.43 | S 3.57 | H 3.46 | I 3.03 | A 3.38 | D 3.37 | K 3.4 | E 3.38 | C 3.42 | Y 3.31 | L 3.36 | V 3.26 | G 3.51 | M 3.42 | F 3.52 | Q 3.47 | T 3.32 | R 3.57
Q51: L 3.53 | Y 3.62 | C 3.71 | M 3.49 | G 3.43 | A 3.47 | I 3.31 | R 3.3 | W 3.49 | T 3.56 | S 3.49 | F 3.58 | H 3.54 | P 2.52 | K 3.45 | E 3.48 | N 3.46 | D 3.56 | V 3.34
E47: N 3.52 | Y 3.51 | K 4.09 | S 3.71 | H 3.8 | L 3.88 | F 3.75 | Q 3.96 | T 3.73 | M 3.87 | I 3.92 | P 2.33 | V 3.85 | D 3.49 | A 3.76 | W 3.76 | C 3.66 | R 4.15 | G 3.5
P50: R 3.38 | L 3.21 | F 3.05 | T 3.12 | E 2.89 | Q 3.25 | G 3 | D 2.9 | C 3.11 | K 3.39 | N 3.05 | H 3.07 | S 3.29 | W 3.39 | V 2.99 | A 3.3 | M 3.05 | I 3.23 | Y 3.06
A48: P 2.25 | L 3.45 | W 3.34 | M 3.28 | D 2.1 | Q 3.37 | I 3.33 | F 3.44 | G 2.64 | E 2.78 | Y 3.48 | T 3.33 | H 3.68 | N 3.44 | R 2.9 | S 3.53 | K 2.63 | V 3.28 | C 3.84
E42: V 3.01 | A 3.26 | I 3.25 | G 3.04 | N 3.49 | D 3.37 | K 3.22 | R 3.14 | C 3.11 | F 3.06 | W 3.1 | T 3.41 | M 3.3 | S 3.29 | H 3.01 | L 3.16 | Q 3.37 | Y 2.97 | P 2.64
I45: G 2.2 | F 2.61 | Q 1.91 | Y 2.5 | N 2.17 | S 2.16 | C 2.67 | A 2.37 | V 3 | R 2.06 | W 2.6 | K 2.41 | M 2.88 | D 2.39 | E 2.15 | P 1.88 | H 2.08 | L 3.19 | T 2.13
I41: M 3.57 | N 2.17 | E 2.29 | P 1.98 | A 2.86 | F 3.5 | D 1.96 | K 2.59 | V 3.4 | L 3.83 | T 2.72 | Y 3.35 | H 2.52 | G 2.29 | C 2.87 | R 3.03 | Q 2.78 | W 3.72 | S 2.59
S53: A 3.19 | D 3.02 | E 3.09 | C 3.18
Y46: H 3.62 | C 3.46 | D 3.29 | P 2.82 | E 3.36 | M 3.58 | V 3.5 | W 3.56 | F 3.55 | A 3.52 | K 3.64 | N 3.57 | R 3.66 | S 3.52 | Q 3.66 | G 3.44 | T 3.62 | L 3.44 | I 3.47
M36: N 3.34 | F 4.23 | Q 3.19 | T 3.65 | Y 3.57 | D 2.72 | P 3.63 | W 4.42 | I 3.75 | R 3.6 | E 2.77 | H 3.99 | G 3.48 | A 3.8 | V 3.81 | L 3.72 | C 3.44 | K 3.66 | S 3.41
D49: G 2.36 | V 2.58 | N 2.75 | T 2.83 | M 2.71 | L 2.43 | I 2.49 | K 2.14 | R 2.21 | P 2.15 | F 2.43 | S 2.93 | Q 2.53 | W 2.66 | C 2.7 | A 2.62 | H 2.3 | E 2.25 | Y 2.67
M35: S 3.07 | Q 3.09 | Y 3.33 | R 3.02 | T 3.14 | V 3.38 | W 3.6
